This is an account of results in publication PMC5550427, “A family of archaea-like carboxylesterases preferentially expressed in the symbiotic phase of the mycorrhizal fungus Tuber melanosporum” (Scientific Reports, 2017).

Series [1] addresses TmelEST3 (Tuber melanosporum). In words: SEC; Superdex 200 HR10/30, 200 µg purified protein per run, 25 mM Tris-HCl pH 7.5, 150 mM NaCl, non-denaturing; size unchanged on β-mercaptoethanol supplementation. In general terms: SEC sorts molecules by how far they enter the pores of the column.
Series [2] relates to T1, TmelEST3.
T1 construct: signal peptide (first 18 residues) removed; N-terminal 6xHis cut with thrombin; E. coli BL21-CodonPlus(DE3)-RIL; ~35 kDa subunit, dimer (~65 kDa); salt-bridge residues Glu291, Arg304
In words: pNP release at […] nm, Michaelis-Menten fit. Format: biochemical, Tuber melanosporum. The conditions noted are these: 25 mM Na-phosphate pH 7.0, 25 °C; Triton X-100 stabilized enzyme.

Series [3] has as its system T2, TmelEST1.
T2 construct: signal peptide (first 18 residues) removed; N-terminal 6xHis cut with thrombin; E. coli BL21-CodonPlus(DE3)-RIL; ~35 kDa subunit, dimer (~65 kDa); salt-bridge residues Glu284, Arg297; Arg242
Nature of the series: pNP release at […] nm, Michaelis-Menten fit. Format: biochemical, Tuber melanosporum. To be noted: 25 mM Na-phosphate pH 7.0, 25 °C; Triton X-100 stabilized enzyme.

Series [4] deals with T1, TmelEST3. Nature of the series: pH-shift assay with phenol red, A560. The class given is biochemical, Tuber melanosporum. The conditions noted are these: 2 mM Tris-HCl pH 8, 25 °C; 1-30 mM substrate; preliminary data; read-out: estimated Km.
In series [5] the test system is T2, TmelEST1. Nature of the series: pH-shift assay with phenol red, A560. The class given is biochemical, Tuber melanosporum. The conditions noted are these: 2 mM Tris-HCl pH 8, 25 °C; 0.25-5 mM substrate; read-out: apparent Km.
Series [6] concerns the target TmelEST1 (Tuber melanosporum). In words: SEC; Superdex 200 HR10/30, 200 µg purified protein per run, 25 mM Tris-HCl pH 7.5, 150 mM NaCl, non-denaturing; size unchanged on β-mercaptoethanol supplementation.
Series [7] has as its target TmelEST2 (Tuber melanosporum). Described as above.
Substrate in series [8]: CCCC(=O)Oc1ccc([N+](=O)[O-])cc1
Nature of the series: purified protein. Format: biochemical, Tuber melanosporum. To be noted: 25 mM Na-phosphate pH 7.0, 25 °C, Triton X-100 stabilized enzyme.

Substrate in series [9]: CCCCC(=O)Oc1ccc([N+](=O)[O-])cc1
In words: purified protein. The class given is biochemical, Tuber melanosporum. The conditions noted are these: 25 mM Na-phosphate pH 7.0, 25 °C, Triton X-100 stabilized enzyme.

Substrate in series [10]: COC(=O)c1ccccc1O
In words: pH-shift assay with phenol red, A560. The class given is biochemical, Tuber melanosporum. The conditions noted are these: 2 mM Tris-HCl pH 8, 25 °C, 1-30 mM substrate, preliminary data.

Regarding TmelEST3 (enzyme), the stoichiometry N in [1] is 2.

Turning to `CCCCC(=O)Oc1ccc([N+](=O)[O-])cc1` [C5, pNP-valerate], the Km in the series with TmelEST3 [2] is 137 ± 20 µM; in the series with TmelEST1 [3], 160 ± 20 µM.

Turning to `CCCC(=O)Oc1ccc([N+](=O)[O-])cc1` [C4, p-nitrophenyl-butyrate], the results for the Km in the series with TmelEST3 [2] and in the series on TmelEST1 [3] were 109 ± 6 µM and 140 ± 14 µM, respectively.

As to `COC(=O)Cc1c[nH]c2ccccc12` [indole-3-acetic methyl ester], the Km with TmelEST3 [4] was about 3350 µM.

Take `CCOC(=O)/C=C/c1ccc(O)c(OC)c1` [ethyl ferulate]: the Km in the series on TmelEST1 [5] worked out at 880 µM.

TmelEST1 (enzyme) showed a stoichiometry N in [6] of 2.

Molecule TmelEST2 (enzyme) yielded a stoichiometry N in series [7] of 2.

B1: TmelEST2 (Tuber melanosporum Mel28) (protein)
chain: ETPAPSCPVTNVTTPQLDPITQAYADAISSRPSLFAFPLPEIRDGYQSNVSDPSTEFTTKILSLPVGPTGNVTAYLYKPVSGEREKGKDLLPVIAYFHGGGWVFGGPKSYRGLITNLIRESGAAVFFVDYTLTPKVAYPVPNEQCYAAVQWLLEHGEKLGVDPTNMGFGGDSAGGELSSSVSLLSIKRKTPLPKFQVLIYPATDLACESATFKEFPNGPGLTTDEIRFAASLFTPDPKSRLEDVASPGRASDEDLAKFPETLIVVAEVDPIRQQGEDFGRRLQKLGVRAAIIRVLGTIHGFASIDVLSEAPGAKATIELIGYKFKKALH
notes: signal peptide (first 18 residues) removed; N-terminal 6xHis cut with thrombin; E. coli BL21-CodonPlus(DE3)-RIL; ~35 kDa subunit, dimer (~65 kDa); structure residues 34-347; triad Ser190, Asp287, His317
As for B1, in the series “purified protein [8]”, the Km was found to be 49 ± 8 µM, the Vmax turned out to be 3840 µmol/min/mg, the kcat is 2300 s⁻¹ and the kcat/Km is 4.7e+07 M⁻¹ s⁻¹. For the same molecule, in “purified protein [9]”, the Km was 44 ± 7 µM, the Vmax came out at 4790 µmol/min/mg, the kcat was 2870 s⁻¹ and the kcat/Km worked out at 6.53e+07 M⁻¹ s⁻¹. In series [10], the Km came to 750 µM and the kcat came to 1 s⁻¹.

Broadly, the stoichiometry N is the number of molecules, sites or subunits per partner or assembly. A word on the Km: it is the concentration of substrate that gives half-maximal velocity. What is called Vmax is the top rate of the reaction or transport when substrate is in excess. As a reminder, the kcat is the number of substrate molecules converted per active site and unit of time at saturation. By kcat/Km is commonly meant the turnover number divided by the Michaelis constant.
